# Measured values as given in PMC12830604.
# Biological target: Gαq construct with N-terminal fusion of LgBiT (UniProt P50148)
# Experiment: NanoBiT Gαq-recruitment assay (concentration-response to LTC4)
# Settings: read at log[LTC4, (M)] = -6, the highest concentration; n = 3, mean ± s.e.m.; parent: est. 97; read off a plot; scale: normalized Gq response
row,response,Substance
1,0,"CysLT2R with C-terminal SmBiT (wild type, NanoBiT Gαq-recruitment assay) (from UniProt Q9NS75) R136A"
2,57,"CysLT2R with C-terminal SmBiT (wild type, NanoBiT Gαq-recruitment assay) (from UniProt Q9NS75) S241A"
